Several values for one entry are separate records, joined by “and”; a condition that tells them apart may be missing. Equal entries are not always repeated.
Target: AcrIIA22 (wild type, thrombin-cleaved) (Clostridial genus CAG-217 (human gut metagenome; taxonomy inferred by the paper))
Experiment: SEC

With “AcrIIA22 (wild type, thrombin-cleaved) (natural protein)” the stoichiometry N was 4 and 5.

— article doi:10.1101/2020.09.28.317578
